Results: the supplement of paper PMC12667976

B1: library; numbered along this chain (parent)
chain: MATDAALRRLLRLHRTEIAVAVDSAFPLLHALADHDVVPEDKFQETLHLKEKEGCPQAFHALLSWLLTQDSTAILDFWRVLFKDYNLERYGRLQPILDSFPKDVDLSQPRKGRKPPAVPKALVPPPRLPTKRKASEEARAAAPAALTPRGTASPGSQLKAKPPKKPESSAEQQRLPLGNGIQTMSASVQRAVAMSSGDVPGARGAVEGILIQQVFESGGSKKCIQVGGEFYTPSKFEDSGSGKNKARSSSGPKPLVRAKGAQGAAPGGGEARLGQQGSVPAPLALPSDPQLHQKNEDECAVCRDGGELICCDGCPRAFHLACLSPPLREIPSGTWRCSSCLQATVQEVQPRAEEPRPQEPPVETPLPPGLRSAGEEVRGPPGEPLAGMDTTLVYKHLPAPPSAAPLPGLDSSALHPLLCVGPEGQQNLAPGARCGVCGDGTDVLRCTHCAAAFHWRCHFPAGTSRPGTGLRCRSCSGDVTPAPVEGVLAPSPARLAPGPAKDDTASHEPALHRDDLESLLSEHTFDGILQWAIQSMARPAAPFPS

Variants of: B1
Assay: AIRE transcriptional activation functional score (insulin promoter-GFP; nonsense median 0, synonymous median 1) (normalised score); higher = higher AIRE activity (more reporter activation)
Conditions: with insulin promoter-GFP reporter in HEK293
How it was run: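 Flp-In T-REx HEK293 landing-pad cells carrying an insulin core promoter-GFP reporter received codon-optimized AIRE NNN-codon libraries (three regions) through Bxb1 recombinase. Sorting of mCherry+, BFP− integrants took place at day 7, followed by 7 days of expansion and tile-sequencing of top 10% GFP and unselected integrant populations. A functional score was derived from select versus non-select variant enrichment with wild type subtracted. Values from variants reaching 10 counts per million in non-select were set to nonsense median 0 and synonymous median 1 and averaged over biological replicates.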

AIRE transcriptional activation functional score: each site, then its substitutions
L417: R 0.707; C 1.24; V 0.708; A 0.892; Q 1.07; E 0.739; S 0.626; W 1.3; P 0.784; D 1.12; K 0.833; N 1.05; T 0.966; Y 1.21; F 1.3; G 0.679; H 0.632; I 0.855
H415: Q 0.783; D 0.797; I 0.632; W 0.671; R 0.811; G 0.474; Y 1.42; K 0.65; E 1.32; M -0.327; L 1.22; C 0.616; S 0.782; N 1.22; F 1.67; P 1.11; A 1.08; V 1.06; T 0.92
C419: K 1.17; Q 1.3; S 0.615; P 1.24; L 1.33; G 0.96; N 0.258; H 0.558; V 1.22; E 1.04; D 0.584; W 1.21; A 0.69; F 1.64; R 0.836; I 0.681; T 1.2
D410: E 1.11; M 0.501; H 1.17; F 1.06; S 1.27; V 0.998; C 1.12; L 1.08; W 0.337; I 1.19; T 1.41; G 0.967; K 0.35; A 1.09; Y 1.27; P 0.93; Q 1.2; N 1.12; R 0.412
G408: L 0.00278; Q 1.29; A 0.914; C 1.01; N 0.674; R 0.906; E 1.05; T 0.879; D 1.2; S 1.03; I 0.636; F 1.28; Y 1.08; W 1.34; H 1.31; P 0.97; K 1.14; V 0.743
G424: E 0.64; H 0.363; T 1.59; I -0.488; K 1.04; S 1.19; C 1.41; N 0.684; F 1.64; D 1; M 0.308; A 1.25; L 1.08; R 1.03; V 1.25; P 1.24; Q 1.49
E423: V 1.2; G 1.34; Y 1.38; I 1.05; Q 0.981; M 0.551; S 1.27; F 1.02; P 0.817; D 1.25; C 0.459; K 0.795; L 1.28; H 1.2; T 0.737; R 0.409; A 1.2
L418: N 1.02; H 0.443; F 1.42; A 1.06; R 0.67; T 0.829; M 0.207; P 0.93; D 0.816; I 0.6; Q 1.28; Y 1.42; K 0.4; S 0.85; V 1.04; E 0.507; C 1.16; G 1
S412: G 1.03; C 0.988; W 1.72; I 0.868; V 1.13; T 1.02; R 1.07; P 0.711; H 1.26; Y 1.5; E 0.743; L 1.15; M 1.3; K 0.899; Q 0.66; F 1.37; N 0.717; D 0.652; A 1.09
S411: D 0.711; T 0.867; L 1.24; A 1.04; Y 1.06; R 0.871; N 0.99; H 0.897; C 1.45; K 1.18; G 0.952; W 1.31; I 1.3; P 1.08; F 1.46; M 1.37; Q 0.0682; V 1.06; E 0.407
L409: T 1.02; P 1.25; I 1.16; N 0.459; Y 0.962; E 0.899; A 0.384; C 0.887; V 0.903; K 0.881; G 0.891; F 0.907; Q 0.636; R 0.789; M 1.03; S 1.23; H 0.62; D 1.21
A413: R 0.964; H 0.905; E 0.842; V 0.931; M 1.02; N 0.373; W 1.15; F 0.975; G 1.12; S 0.965; P 0.731; D 0.666; C 1.42; K 0.606; L 1.43; I 1.34; Q 1.01; Y 1.25; T 1.17
V420: G 0.846; T 0.608; W 1.35; E 0.728; I 0.811; D 0.683; P 1.01; C 1.11; H 0.593; Y 0.639; A 1.04; L 0.722; S 1.07; Q -0.123; M 1.43; F 1.03; R 1.03; K 0.606
L406: N 1.18; W 0.702; Y 1.02; R 0.985; S 0.856; M 1.3; P 0.97; V 0.908; Q 1.11; T 0.633
P407: T 1.18; R 0.823; K 0.865; A 0.943; H 1.28; G 1.07; W 1.13; N 1.39; I 1.43; L 1.06; F 1.2; Q 1.2; Y 1.51; V 1.23; M 1.6; E 0.454; C 1.24; D 1.67; S 1.19
P422: W 1.69; V 0.479; Q 0.91; Y 1.42; N 1.18; D 1.69; G 1.53; R 0.868; L 1.3; F 0.774; C 1.28; I 1.26; A 0.724; E 0.766; H 0.986; T 0.528; S 0.814
L414: T 1.14; R 0.749; W 0.979; G 0.546; S 0.625; A 1.49; Y -0.109; V 1.1; N 1.07; C 0.792; H 0.857; K 0.634; P 0.785; F 1.41; I 1.45; D 1.03; E 1.08
G421: M 0.931; H -0.132; P 1.4; K 0.558; F 1.33; R 0.926; N 0.869; A 0.875; C 1.58; D 1.83; L 0.327; S 0.74; Y -0.246; E 1.65; T 0.472; W 1.43; V 0.933
P416: T 0.937; F 0.451; Y 0.419; S 1.09; Q 1.49; M 1.55; C 1.46; R 0.68; L 0.688; H -0.0276; N 1.21; D -0.251; V 0.526; W 1.5; I 0.0784; K 0.665; G 0.937; A 0.819
